Each block holds one binder with its values, some of them ahead of it.
Columns and labels:
Rat Epo [1] = target: T1, Rat Epo (rat, UniProt P29676 27-192); test: SET; rat Epo
T1 sequence: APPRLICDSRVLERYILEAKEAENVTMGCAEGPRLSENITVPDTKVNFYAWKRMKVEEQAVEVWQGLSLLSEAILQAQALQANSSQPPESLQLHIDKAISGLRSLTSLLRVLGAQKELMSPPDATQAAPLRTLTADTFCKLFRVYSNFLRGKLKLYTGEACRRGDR
Protocol: (§1) In SET, a constant amount of antibody is incubated with different concentrations of antigen until equilibrium is reached. The concentration of free antibody in the equilibrated solution is determined by applying the solution on an antigen coated MSD™ plate (Meso Scale Discovery™) followed by incubation with an ECL-labeled secondary antibody and measurement of signal intensity. […] If a sufficient number of antigen concentrations in a matching range are available, the titration curve allows for a reasonable determination of the affinity, using the appropriate fit model.
(§2) Streptavidin-coated standard MSD plates (Meso-Scale Discovery, 384-well: MSD cat #L11 SA) were blocked with 25 μl incubation buffer at RT for 1 hr. […] Plates were washed 3× in TBST buffer. […] Plates were washed 3× in TBST buffer. 25 μl detection antibody was added (Anti-Human (Goat) Sulfo-TAG, 1:1000 in incubation buffer, MSD cat #R32AJ-1), and incubated at RT for 60 min. Plates were washed 3× in wash buffer, and 50 μl of 1× MSD Read buffer T was added (with surfactant, MSD cat #R92TC-1). Plates were read on a MSD Spector Imager 6000.

Mouse Epo [2] = target: T2, Mouse Epo (mouse, UniProt P07321 27-192); test: SET; mouse Epo
T2 sequence: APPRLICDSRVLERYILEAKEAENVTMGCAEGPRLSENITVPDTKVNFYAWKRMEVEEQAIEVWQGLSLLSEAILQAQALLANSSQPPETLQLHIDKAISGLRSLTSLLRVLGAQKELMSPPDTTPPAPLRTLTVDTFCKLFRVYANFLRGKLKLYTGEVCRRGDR
Protocol: as §1, §2

Rabbit Epo [3] = target: T3, Rabbit Epo (rabbit, UniProt Q9GKA2 29-195, limits assumed); test: SPR (Biacore T200), Fab captured by anti-human Fab, Epo as analyte, 25 C
T3 sequence: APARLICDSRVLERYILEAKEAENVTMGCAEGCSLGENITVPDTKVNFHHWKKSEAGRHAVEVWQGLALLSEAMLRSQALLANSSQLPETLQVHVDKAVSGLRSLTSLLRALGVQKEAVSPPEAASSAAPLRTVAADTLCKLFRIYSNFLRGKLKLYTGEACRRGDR
Protocol: (§3) Three flow cells were utilized for the method run. […] Both capture and binding steps were carried out on flow cells 2-4.
(§4) The resulting signals were adjusted by double referencing, thus subtracting the refraction index values from the reference flow cell and the binding step with no analyte. Data was collected at 10 Hz and analyzed using the Biacore® T100 Evaluation Software Version 1.1 (GE Healthcare). This program uses a global fitting analysis method for the determination of rate and affinity constants for each interaction.

Mouse Epo [4] = target: T2, Mouse Epo; test: as above
Protocol: as §3, §4

Rat Epo [5] = target: T1, Rat Epo; test: as above
Protocol: as §3, §4

Rabbit Epo [6] = target: T3, Rabbit Epo; test: solution equilibrium titration (SET), MSD ECL read-out, Fab with Epo titration
Protocol: as §1, §2

Mouse Epo [7] = target: T2, Mouse Epo; test: as above
Protocol: as §1, §2

Rat Epo [8] = target: T1, Rat Epo; test: as above
Protocol: as §1, §2

Mouse Epo [9] = target: T2, Mouse Epo; test: SET
Protocol: as §1, §2

Rat Epo [10] = target: T1, Rat Epo; test: SET
Protocol: as §1, §2

Rabbit Epo [11] = target: T3, Rabbit Epo; test: SPR (Biacore T200), Fab captured by anti-human Fab, Epo as analyte, 25 C; single datapoint
Protocol: as §3, §4

Mouse Epo [12] = target: T2, Mouse Epo; test: as above
Protocol: as §3, §4

Rat Epo [13] = target: T1, Rat Epo; test: as above
Protocol: as §3, §4

Mouse Epo [14] = target: T2, Mouse Epo; test: solution equilibrium titration (SET), MSD ECL read-out, Fab with Epo titration; single datapoint
Protocol: as §1, §2

Rat Epo [15] = target: T1, Rat Epo; test: as above
Protocol: as §1, §2

Kd (Rabbit Epo [3]): 0.674 nM | Kd (Mouse Epo [4]): 0.001 nM | Kd (Rat Epo [5]): 0.038 nM | Kd (Rabbit Epo [6]): 0.0399 nM | Kd (Mouse Epo [7]): 0.0025 nM | Kd (Rat Epo [8]): 0.0012 nM
B2: NVS3 (Fab, V domains shown)
VH: QVQLQQSGPGLVKPSQTLSLTCAISGDSVSSNTAAWNWIRQSPSRGLEWLGVIYYRSKWYNDYAVSVKSRITINPDTSKNQFSLQLNSVTPEDTAVYYCARSVPGGDPGLEHAFAYWGRGTLVTVSS
VL: SYVLTQPPSVSVAPGKTARITCSGDNLGTYYVEWYQQKPGQAPVLVIYDDSDRPSGIPERFSGSNSGNTATLTISRVEAGDEADYYCASFASWSDSVFGGGTKLTVLG
notes: Human FabCys format; also called Fab NVS3; derived from initial antibody 11380

Kd (Rabbit Epo [11]): 0.661 nM | Kd (Mouse Epo [12]): 0.022 nM | Kd (Rat Epo [13]): 0.041 nM | Kd (Mouse Epo [14]): 0.0161 nM | Kd (Rat Epo [15]): 0.0054 nM
B4: NVS1 (Fab, V domains shown)
VH: QVQLVQSGAEVKKPGSSVKVSCKASGGTFRSYAISWVRQAPGQGLEWMGGIDPISGFADYAQKFQGRVTITADESTSTAYMELSSLRSEDTAVYYCARELYYPGTWMAVMAYWGRGTLVTVSS
VL: SYVLTQPPSVSVAPGKTARITCSGDNIPEYYVHWYQQKPGQAPVLVIYRDNERPSGIPERFSGSNSGNTATLTISRVEAGDEADYYCQVFDESSWHWVFGGGTKLTVLG
notes: Human FabCys format (VH-CH1 ending EPKSC, lambda light chain); also called Fab NVS1; derived from initial antibody 11319

Further lines, the binder ahead of its results:

B1: NVS2 (Fab, V domains shown)
VH: EVQLVQSGAEVKKPGESLKISCKGSGYSFTSYWIGWVRQMPGKGLEWMGWIDPYRSEIRYSPSFQGQVTISADKSISTAYLQWSSLKASDTAMYYCARVSSEPFDSWGQGTLVTVSS
VL: SYVLTQPPSVSVAPGKTARITCSGDKLGDHYAYWYQQKPGQAPVLVIYDDSKRPSGIPERFSGSNSGNTATLTISRVEAGDEADYYCATWTFEGDYVFGGGTKLTVLG
notes: Human FabCys format; also called Fab NVS2; anti-EPO Fab
Kd (Rat Epo [1]): < 0.02 nM | Kd (Mouse Epo [2]): < 0.05 nM | Kd (Rabbit Epo [3]): 5.16 nM | Kd (Mouse Epo [4]): 0.0449 nM | Kd (Rat Epo [5]): 0.0566 nM | Kd (Rabbit Epo [6]): 3.86 nM | Kd (Mouse Epo [7]): 0.037 nM | Kd (Rat Epo [8]): 0.0127 nM

B3: NVS4 (Fab, V domains shown)
VH: QVQLVQSGAEVKKPGASVKVSCKASGYTFTSYYMSWVRQAPGQGLEWMGWINPLKGNTNYAQKFQGRVTMTRDTSISTAYMELSRLRSEDTAVYYCAREGMYFDIWGQGTLVTVSS
VL: SYELTQPLSVSVALGQTARITCSGDSIGDKYVYWYQQKPGQAPVLVIYDTNKRPSGIPERFSGSNSGNTATLTISRAQAGDEADYYCQSWDLDFNTYVFGGGTKLTVLG
notes: Human FabCys format; also called Fab NVS4; derived from initial antibody 11317
Kd (Mouse Epo [9]): < 0.01 nM | Kd (Rat Epo [10]): < 0.01 nM | Kd (Mouse Epo [4]): 0.0305 nM | Kd (Rat Epo [5]): 0.0344 nM | Kd (Rabbit Epo [6]): 28.7 nM | Kd (Mouse Epo [7]): 0.0078 nM | Kd (Rat Epo [8]): 0.0127 nM

Source: patent US20210355206A1 (Novartis, published 2021)
